The results in this text go back to paper PMC3662786, “miR172b Controls the Transition to Autotrophic Development Inhibited by ABA in Arabidopsis”.

Common to all, as to conditions: protein: recombinant; tags: MBP fusion; label: 3' biotin; blunt
Data set [1] addresses T1, MBP-SNZ (Arabidopsis thaliana, UniProt Q6PV67 1-325). Briefly: EMSA; poly(dI-dC), 5 mM MgCl2; unlabeled RAV1-A probe reduced binding; LightShift EMSA binding buffer, 50 ng poly(dI-dC), 2.5% glycerol, 0.06% NP-40, 5 mM MgCl2, 19 mg BSA (so in the source), 28 ug protein, 5 pmol probe, 30 min room temperature; pH and salt not given. For orientation: A gel shift assay detects complexes by their altered migration in electrophoresis.

Data set [2] addresses T1, MBP-SNZ. As to the kind of experiment: EMSA; poly(dI-dC), 5 mM MgCl2; unlabeled probe (50x, 250x) inhibited binding; LightShift EMSA binding buffer, 50 ng poly(dI-dC), 2.5% glycerol, 0.06% NP-40, 5 mM MgCl2, 19 mg BSA (so in the source), 28 ug protein, 5 pmol probe, 30 min room temperature; pH and salt not given.
The target of data set [3] is T1, MBP-SNZ. Briefly: EMSA; poly(dI-dC), 5 mM MgCl2; LightShift EMSA binding buffer, 50 ng poly(dI-dC), 2.5% glycerol, 0.06% NP-40, 5 mM MgCl2, 19 mg BSA (so in the source), 28 ug protein, 5 pmol probe, 30 min room temperature; pH and salt not given.

T1 sequence (Q6PV67 whole entry): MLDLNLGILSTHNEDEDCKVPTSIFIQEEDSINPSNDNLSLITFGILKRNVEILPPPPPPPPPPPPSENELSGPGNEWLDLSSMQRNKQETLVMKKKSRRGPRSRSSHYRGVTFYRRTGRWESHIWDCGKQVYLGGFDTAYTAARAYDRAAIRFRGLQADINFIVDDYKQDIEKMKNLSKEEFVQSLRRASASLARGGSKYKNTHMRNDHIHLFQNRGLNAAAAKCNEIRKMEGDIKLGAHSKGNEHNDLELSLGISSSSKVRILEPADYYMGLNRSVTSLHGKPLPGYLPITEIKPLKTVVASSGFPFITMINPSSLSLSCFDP

B1: wRAV1-A probe (dsDNA)
DNA 1: CACCTGCAACACAACACAACACAACACAACACAACACACCTG
DNA 2: CAGGTGTGTTGTGTTGTGTTGTGTTGTGTTGTGTTGCAGGTG
For the molecule B1, the binding result in the data set with MBP-SNZ [1] is on record as “binds”.

B2: ABI5 probe (dsDNA)
DNA 1: TTAACAACTGCATCATATACACAACAATAAC
DNA 2: GTTATTGTTGTGTATATGATGCAGTTGTTAA
B2: the binding result with MBP-SNZ [2] is listed as “binds”.

B3: mRAV1-A probe (dsDNA)
DNA 1: CACCTGCGGTACGGTACGGTACGGTACGGTACGGTACACCTG
DNA 2: CAGGTGTACCGTACCGTACCGTACCGTACCGTACCGCAGGTG
Consider B3, for which, in the data set with MBP-SNZ [3], the binding result is “no binding”.
